Measurements reported in the Immune Epitope Database (IEDB).

Legend:
[1] = target: HLA-B*53:01; experiment: IEDB peptide-MHC binding, purified MHC/competitive/radioactivity; filed as Kd, often an IC50 or EC50 that approximates it; ≥ and ≤ were set here for values at or beyond the usual limits of such assays; settings: source organism: Dengue virus 4 Philippines/H241/1956
[2] = target: HLA-B*35:01; experiment: as above; settings: source organism: Dengue virus 4 Philippines/H241/1956
[3] = target: HLA-B*07:02; experiment: IEDB peptide-MHC binding, purified MHC/competitive/radioactivity; ≥ and ≤ were set here for values at or beyond the usual limits of such assays; settings: source organism: dengue virus type 4
[4] = target: HLA-A*31:01; experiment: IEDB peptide-MHC binding, purified MHC/competitive/fluorescence; filed as Kd, often an IC50 or EC50 that approximates it; ≥ and ≤ were set here for values at or beyond the usual limits of such assays; settings: source organism: Yersinia pestis KIM10+
[5] = target: HLA-A*03:01; experiment: IEDB peptide-MHC binding, purified MHC/direct/fluorescence; filed as Kd, often an IC50 or EC50 that approximates it; ≥ and ≤ were set here for values at or beyond the usual limits of such assays
[6] = target: HLA-B*38:01; experiment: as above; settings: source organism: Yersinia pestis CA88-4125
[7] = target: HLA-A*01:01; experiment: as above
[8] = target: HLA-B*57:01; experiment: as above; settings: source organism: Yersinia pestis
[9] = target: HLA-B*27:05; experiment: as above
[10] = target: HLA-B*15:01; experiment: as above
[11] = target: HLA-A*02:01; experiment: as above
[12] = target: HLA-B*07:02; experiment: as above
[13] = target: HLA-B*08:01; experiment: as above
[14] = target: HLA-A*69:01; experiment: as above
[15] = target: HLA-B*46:01; experiment: as above; settings: source organism: Yersinia pestis
[16] = target: HLA-B*51:01; experiment: as above; settings: source organism: Yersinia pestis
[17] = target: HLA-B*48:01; experiment: as above
[18] = target: HLA-B*15:17; experiment: as above; settings: source organism: Yersinia pestis
[19] = target: HLA-B*15:09; experiment: as above; settings: source organism: Yersinia pestis CA88-4125
[20] = target: HLA-B*18:01; experiment: as above; settings: source organism: Yersinia pestis
[21] = target: HLA-B*40:01; experiment: as above
[22] = target: HLA-B*58:01; experiment: as above
[23] = target: HLA-B*39:01; experiment: as above; settings: source organism: Yersinia pestis CA88-4125
[24] = target: HLA-A*11:01; experiment: as above
[25] = target: HLA-B*73:01; experiment: IEDB peptide-MHC binding, purified MHC/competitive/fluorescence; filed as Kd, often an IC50 or EC50 that approximates it; ≥ and ≤ were set here for values at or beyond the usual limits of such assays; settings: source organism: Burkholderia mallei SAVP1
[26] = target: HLA-C*06:02; experiment: as above; settings: source organism: Yellow fever virus
[27] = target: HLA-B*15:42; experiment: as above
[28] = target: HLA-B*83:01; experiment: as above
[29] = target: HLA-B*45:06; experiment: as above
[30] = target: HLA-B*27:20; experiment: as above
[31] = target: HLA-C*07:02; experiment: IEDB peptide-MHC binding, purified MHC/direct/fluorescence; filed as Kd, often an IC50 or EC50 that approximates it; ≥ and ≤ were set here for values at or beyond the usual limits of such assays; settings: source organism: Yellow fever virus
[32] = target: HLA-B*46:01; experiment: IEDB peptide-MHC binding, purified MHC/competitive/fluorescence; filed as Kd, often an IC50 or EC50 that approximates it; ≥ and ≤ were set here for values at or beyond the usual limits of such assays; settings: source organism: Vibrio cholerae 2740-80
[33] = target: HLA-A*02:50; experiment: as above; settings: source organism: Vibrio cholerae 2740-80
[34] = target: HLA-C*06:02; experiment: IEDB peptide-MHC binding, purified MHC/direct/fluorescence; filed as Kd, often an IC50 or EC50 that approximates it; ≥ and ≤ were set here for values at or beyond the usual limits of such assays; settings: source organism: Vibrio cholerae 2740-80
[35] = target: HLA-A*31:01; experiment: as above; settings: source organism: Vibrio cholerae
[36] = target: HLA-B*44:02; experiment: as above; settings: source organism: Vibrio cholerae
[37] = target: HLA-C*12:03; experiment: as above; settings: source organism: Vibrio cholerae 2740-80
[38] = target: HLA-B*35:01; experiment: as above; settings: source organism: Vibrio cholerae
[39] = target: HLA-A*26:01; experiment: as above; settings: source organism: Vibrio cholerae
[40] = target: HLA-B*35:01; experiment: IEDB peptide-MHC binding, purified MHC/competitive/radioactivity; ≥ and ≤ were set here for values at or beyond the usual limits of such assays; settings: source organism: Human papillomavirus 16
[41] = target: HLA-C*04:01; experiment: IEDB peptide-MHC binding, purified MHC/competitive/fluorescence; filed as Kd, often an IC50 or EC50 that approximates it; ≥ and ≤ were set here for values at or beyond the usual limits of such assays; settings: source organism: Mycobacterium tuberculosis variant bovis BCG str. Pasteur 1173P2
[42] = target: HLA-A*02:01; experiment: as above; settings: source organism: Mycobacterium tuberculosis variant bovis BCG str. Pasteur 1173P2
[43] = target: HLA-A*02:11; experiment: as above; settings: source organism: Mycobacterium tuberculosis variant bovis BCG str. Pasteur 1173P2
[44] = target: HLA-B*40:02; experiment: IEDB peptide-MHC binding, cellular MHC/competitive/fluorescence; ≥ and ≤ were set here for values at or beyond the usual limits of such assays; settings: source organism: Homo sapiens
[45] = source organism: Yersinia pestis
[46] = source organism: Yersinia pestis CA88-4125
[47] = source organism: Yellow fever virus
[48] = source organism: Vibrio cholerae
[49] = source organism: Mycobacterium tuberculosis variant bovis BCG str. Pasteur 1173P2

Sequence: LPSIVREAL
- Kd [1]: 0.0406 µM
- Kd [2]: 0.0828 µM
- IC50 [3]: 0.00031 µM

Sequence: RPQLWRYRW
- Kd [4]: 1.81 µM
- Kd [5, 45]: ≥ 20 µM
- Kd [6]: ≥ 20 µM
- Kd [7, 45]: ≥ 20 µM
- Kd [8]: 0.343 µM
- Kd [9, 45]: ≥ 20 µM
- Kd [10, 45]: ≥ 20 µM
- Kd [11, 45]: ≥ 20 µM
- Kd [12, 45]: 0.97 µM
- Kd [13, 46]: ≥ 20 µM
- Kd [14, 45]: ≥ 20 µM
- Kd [15]: ≥ 20 µM
- Kd [16]: ≥ 20 µM
- Kd [17, 45]: ≥ 20 µM
- Kd [18]: ≥ 20 µM
- Kd [19]: ≥ 20 µM
- Kd [20]: ≥ 20 µM
- Kd [21, 45]: ≥ 20 µM
- Kd [22, 46]: 0.328 µM
- Kd [23]: 3.18 µM
- Kd [24, 45]: ≥ 20 µM

Sequence: RRFWVGYQQ
- Kd [25]: 0.893 µM

Sequence: RRRLRTLVL
- Kd [26]: 0.0505 µM
- Kd [27, 47]: ≥ 5 µM
- Kd [28, 47]: ≥ 5 µM
- Kd [29, 47]: ≥ 5 µM
- Kd [30, 47]: 0.0002 µM
- Kd [31]: 0.225 µM
- Kd ([17]; source organism: Yellow fever virus 17D): 2.93 µM

Sequence: MMFDAMGAL
- Kd [32]: 0.0227 µM
- Kd [33]: 0.0002 µM
- Kd [34]: 1.48 µM
- Kd [5, 48]: 1.46 µM
- Kd [7, 48]: 11.2 µM
- Kd [35]: 0.921 µM
- Kd [9, 48]: ≥ 20 µM
- Kd [10, 48]: 0.0372 µM
- Kd [36]: ≥ 20 µM
- Kd [11, 48]: 0.328 µM
- Kd [12, 48]: 5.75 µM
- Kd [13, 48]: 5.76 µM
- Kd [14, 48]: 0.0331 µM
- Kd [37]: 0.046 µM
- Kd [21, 48]: ≥ 20 µM
- Kd [38]: 0.0185 µM
- Kd [22, 48]: ≥ 20 µM
- Kd [39]: 1.23 µM
- Kd [24, 48]: 9.31 µM

Sequence: SAFRCFIVY
- IC50 [40]: 0.0014 µM

Sequence: AEFGPWQTV
- Kd [41]: ≥ 5 µM
- Kd [27, 49]: ≥ 5 µM
- Kd [28, 49]: ≥ 5 µM
- Kd [42]: 1.64 µM
- Kd [29, 49]: ≥ 5 µM
- Kd [43]: 0.125 µM
- Kd [30, 49]: 0.185 µM

Sequence: SELSPGRSV
- IC50 [44]: 1.1 µM
